In assay [1] the target is F-actin (actin filaments from rabbit skeletal muscle actin) (rabbit) (UniProt P68135). Nature of the assay: single-molecule TIRF microscopy.
The target in assay [2] is mN2G^CH (N-terminal CH domains of nesprin-2G only) (mouse). Nature of the assay: mass photometry.

As a reminder, the stoichiometry N is a count of units in the complex or per binding partner. “mN2G^CH (N-terminal CH domains of nesprin-2G only) (domain or fragment)”: the fold residence time on F-actin against utrophin in assay [1] is greater than 2 fold. Moreover, in assay [2], the stoichiometry N turned out to be 2.

The values above are taken from article PMC11844729.
